Laboratory results taken from patent US20140322218A1 (Amgen, published 2014).
Each block holds one binder with its values, some of them ahead of it.

How the values were obtained:
[1] = biological target: T1, huCDH19(44-772), Flag-tagged, on 293T cells (human, UniProt Q9H159 44-772); test: FACS, transfected 293T
T1 construct: Expressed with native leader (1-43) followed by a Flag tag; leader left out; also called Hu EC1-5
Description: (§1) The experiment included assaying the anti-CDH19 antibodies against mouse Cadherin19 to determine suitability for binning on these human/mouse chimeras.

[2] = biological target: T2, muCDH19(44-247)::huCDH19(250-364)::muCDH19(363-770), Flag-tagged, on 293T cells (human/mouse chimera); test: FACS, transfected 293T
T2 construct: also called Hu EC3; C137911
Description: as §1

[3] = biological target: T3, muCDH19(44-139)::huCDH19(142-364)::muCDH19(363-770), Flag-tagged, on 293T cells (human/mouse chimera); test: FACS, transfected 293T
T3 construct: also called Hu EC2-3; C137847
Description: as §1

[4] = biological target: T4, (1-43)::FLAG::ckCDH19(44-468)::huCDH19(464-772), on 293T cells (human/chicken chimera); test: FACS, transfected 293T;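 note: antibody binding to chimera-expressing cells with 2 mM CaCl2 present, cell-bound Alexa647-labelled antibody read by flow cytometry, mock-transfected cells serving as control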
T4 construct: Entry holds leader (1-43), Flag tag and CDH19 part; leader left out; also called Hu EC5 (chicken backbone)
T4 chain: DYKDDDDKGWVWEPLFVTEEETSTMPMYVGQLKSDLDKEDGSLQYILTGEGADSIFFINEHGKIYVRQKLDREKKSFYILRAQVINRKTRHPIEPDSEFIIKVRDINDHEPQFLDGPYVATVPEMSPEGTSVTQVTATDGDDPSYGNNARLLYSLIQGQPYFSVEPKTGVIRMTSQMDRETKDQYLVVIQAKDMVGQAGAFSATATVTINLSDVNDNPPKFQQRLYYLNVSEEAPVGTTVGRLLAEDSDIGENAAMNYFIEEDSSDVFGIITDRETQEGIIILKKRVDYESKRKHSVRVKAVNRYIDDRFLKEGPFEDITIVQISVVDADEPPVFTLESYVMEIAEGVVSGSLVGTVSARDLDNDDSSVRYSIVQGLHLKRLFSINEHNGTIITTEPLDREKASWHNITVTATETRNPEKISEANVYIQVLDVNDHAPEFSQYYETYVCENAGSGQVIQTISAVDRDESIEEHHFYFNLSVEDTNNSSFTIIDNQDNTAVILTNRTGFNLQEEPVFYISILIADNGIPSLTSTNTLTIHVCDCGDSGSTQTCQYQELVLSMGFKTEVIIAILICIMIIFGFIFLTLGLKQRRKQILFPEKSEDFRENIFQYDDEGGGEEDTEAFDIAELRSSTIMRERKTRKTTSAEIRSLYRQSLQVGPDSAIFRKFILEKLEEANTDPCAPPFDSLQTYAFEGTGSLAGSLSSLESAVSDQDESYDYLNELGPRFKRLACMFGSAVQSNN
Protocol: (§2) The following binding assay was completed in presence of 2 mM CaCl2. […] Cells were then washed one time and the amount of cell associated Alexa647-labelled Ab was quantitated by flow cytometry. The experiments included mock transfected controls.

[5] = biological target: T5, ckCDH19(1-43)::FLAG::ckCDH19(44-141)::huCDH19(142-249)::ckCDH19(250-776), on 293T cells (human/chicken chimera); test: FACS, transfected 293T;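 note: antibody binding to chimera-expressing cells with 2 mM CaCl2 present, cell-bound Alexa647-labelled antibody read by flow cytometry, mock-transfected cells serving as control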
T5 construct: Entry holds leader (1-43), Flag tag and CDH19 part; leader left out; also called Hu EC2 (chicken backbone)
T5 chain: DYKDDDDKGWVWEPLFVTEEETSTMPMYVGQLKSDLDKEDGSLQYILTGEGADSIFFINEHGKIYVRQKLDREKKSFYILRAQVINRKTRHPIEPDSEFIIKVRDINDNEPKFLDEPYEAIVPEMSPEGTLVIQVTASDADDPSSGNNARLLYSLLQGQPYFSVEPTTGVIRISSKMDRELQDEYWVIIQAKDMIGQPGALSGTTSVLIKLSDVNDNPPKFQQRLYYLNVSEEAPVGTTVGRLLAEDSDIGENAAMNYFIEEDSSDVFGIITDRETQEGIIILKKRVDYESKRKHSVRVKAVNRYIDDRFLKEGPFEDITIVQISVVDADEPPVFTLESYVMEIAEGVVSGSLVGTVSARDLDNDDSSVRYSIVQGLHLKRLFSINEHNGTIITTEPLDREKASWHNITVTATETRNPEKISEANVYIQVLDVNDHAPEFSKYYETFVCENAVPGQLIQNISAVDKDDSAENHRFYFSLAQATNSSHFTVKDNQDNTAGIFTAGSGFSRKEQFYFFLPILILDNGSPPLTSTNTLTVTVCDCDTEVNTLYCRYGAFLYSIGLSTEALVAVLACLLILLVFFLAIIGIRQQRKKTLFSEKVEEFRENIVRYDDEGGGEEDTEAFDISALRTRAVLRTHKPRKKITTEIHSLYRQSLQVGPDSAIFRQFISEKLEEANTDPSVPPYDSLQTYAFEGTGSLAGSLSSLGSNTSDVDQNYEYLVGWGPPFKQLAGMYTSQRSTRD
Protocol: as §2

[6] = biological target: T6, ckCDH19(1-43)::FLAG::ckCDH19(44-776), on 293T cells (chicken); test: FACS, transfected 293T;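 note: antibody binding to chimera-expressing cells with 2 mM CaCl2 present, cell-bound Alexa647-labelled antibody read by flow cytometry, mock-transfected cells serving as control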
T6 construct: Entry holds leader (1-43), Flag tag and CDH19 part; leader left out; also called Ck EC1-5
T6 chain: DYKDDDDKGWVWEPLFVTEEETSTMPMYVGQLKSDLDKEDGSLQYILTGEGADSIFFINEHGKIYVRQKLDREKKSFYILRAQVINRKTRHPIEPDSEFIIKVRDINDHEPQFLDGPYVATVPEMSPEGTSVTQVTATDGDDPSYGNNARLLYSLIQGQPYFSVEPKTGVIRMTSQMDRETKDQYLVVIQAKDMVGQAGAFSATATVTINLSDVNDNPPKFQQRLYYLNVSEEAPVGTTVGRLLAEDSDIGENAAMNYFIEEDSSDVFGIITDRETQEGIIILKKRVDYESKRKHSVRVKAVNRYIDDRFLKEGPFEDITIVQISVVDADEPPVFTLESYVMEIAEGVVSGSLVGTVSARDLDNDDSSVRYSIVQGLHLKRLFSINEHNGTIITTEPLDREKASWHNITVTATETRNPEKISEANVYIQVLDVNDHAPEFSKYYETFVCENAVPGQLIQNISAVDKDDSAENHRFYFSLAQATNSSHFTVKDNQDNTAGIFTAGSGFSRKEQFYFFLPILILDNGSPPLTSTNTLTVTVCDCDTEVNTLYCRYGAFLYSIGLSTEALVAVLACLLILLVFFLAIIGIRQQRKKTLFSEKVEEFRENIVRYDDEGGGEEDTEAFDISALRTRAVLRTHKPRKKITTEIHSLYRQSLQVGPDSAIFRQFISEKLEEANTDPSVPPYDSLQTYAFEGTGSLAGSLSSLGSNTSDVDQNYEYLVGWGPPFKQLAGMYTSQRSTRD
Protocol: as §2

[7] = biological target: T7, huCDH19(1-43)::FLAG::hu(44-141)::ckCDH19(142-776), on 293T cells (human/chicken chimera); test: FACS, transfected 293T;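 note: antibody binding to chimera-expressing cells with 2 mM CaCl2 present, cell-bound Alexa647-labelled antibody read by flow cytometry, mock-transfected cells serving as control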
T7 construct: Entry holds leader (1-43), Flag tag and CDH19 part; leader left out; also called Hu EC1 (chicken backbone)
Protocol: as §2

[8] = biological target: T8, muCDH19(44-770), Flag-tagged, on 293T cells (mouse); test: FACS, transfected 293T
T8 construct: also called Mu EC1-5
T8 chain: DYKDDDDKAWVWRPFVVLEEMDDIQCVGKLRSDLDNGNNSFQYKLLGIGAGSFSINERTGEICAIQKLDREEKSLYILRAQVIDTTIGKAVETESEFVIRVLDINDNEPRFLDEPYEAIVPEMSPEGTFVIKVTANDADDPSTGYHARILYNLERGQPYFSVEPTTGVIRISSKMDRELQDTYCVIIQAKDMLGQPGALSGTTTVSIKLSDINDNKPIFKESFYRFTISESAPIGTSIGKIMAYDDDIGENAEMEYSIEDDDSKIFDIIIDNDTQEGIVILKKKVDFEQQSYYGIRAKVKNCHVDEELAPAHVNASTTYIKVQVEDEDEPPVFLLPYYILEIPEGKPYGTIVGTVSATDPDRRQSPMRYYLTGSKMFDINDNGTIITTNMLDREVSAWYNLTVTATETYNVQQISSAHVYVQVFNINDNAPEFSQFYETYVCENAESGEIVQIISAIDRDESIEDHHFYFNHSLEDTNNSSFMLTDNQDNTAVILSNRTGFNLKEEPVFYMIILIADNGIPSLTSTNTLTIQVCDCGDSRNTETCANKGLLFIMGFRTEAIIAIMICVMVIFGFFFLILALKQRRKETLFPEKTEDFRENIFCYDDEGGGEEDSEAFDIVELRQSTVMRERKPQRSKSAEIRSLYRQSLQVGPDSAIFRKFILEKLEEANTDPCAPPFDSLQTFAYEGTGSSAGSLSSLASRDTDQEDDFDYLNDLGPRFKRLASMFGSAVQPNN

Human Cadherin-19 = biological target: T9, Human Cadherin-19 (human, UniProt Q9H159 44-772); test: FACS, endogenous and recombinant human CDH19
T9 construct: Residues 1-43 are named as the native leader in the construct designations and are left out; also called human CDH19; huCDH19
Protocol: FACS binding assays were performed to evaluate the binding of the anti-Cadherin-19 receptor specific antibodies to endogenous Cadherin-19 receptor expressed on the CHL-1 tumor cell lines.
FACs assays were performed by incubating hybridoma supernatants with 10,000 to 25,000 cells in PBS/2% Fetal bovine serum/2 mM Calcium Chloride at 4° C. for one hour followed by two washes with PBS/2% Fetal bovine serum/2 mM Calcium Chloride. Cells were then treated with florochrome-labeled secondary antibodies at 4° C. followed by one wash. The cells were resuspended in 50 μl of PBS/2% FBS and antibody binding was analyzed using a FACSCalibur™ instrument.

Cyno Cadherin-19 = biological target: T10, Cyno Cadherin-19 (cynomolgus monkey (Macaca fascicularis), UniProt Q9H159 44-772 (human entry)); test: FACS, recombinant cyno CDH19
T10 construct: also called cyno CDH19; cynomologous CDH-19
T10 chain: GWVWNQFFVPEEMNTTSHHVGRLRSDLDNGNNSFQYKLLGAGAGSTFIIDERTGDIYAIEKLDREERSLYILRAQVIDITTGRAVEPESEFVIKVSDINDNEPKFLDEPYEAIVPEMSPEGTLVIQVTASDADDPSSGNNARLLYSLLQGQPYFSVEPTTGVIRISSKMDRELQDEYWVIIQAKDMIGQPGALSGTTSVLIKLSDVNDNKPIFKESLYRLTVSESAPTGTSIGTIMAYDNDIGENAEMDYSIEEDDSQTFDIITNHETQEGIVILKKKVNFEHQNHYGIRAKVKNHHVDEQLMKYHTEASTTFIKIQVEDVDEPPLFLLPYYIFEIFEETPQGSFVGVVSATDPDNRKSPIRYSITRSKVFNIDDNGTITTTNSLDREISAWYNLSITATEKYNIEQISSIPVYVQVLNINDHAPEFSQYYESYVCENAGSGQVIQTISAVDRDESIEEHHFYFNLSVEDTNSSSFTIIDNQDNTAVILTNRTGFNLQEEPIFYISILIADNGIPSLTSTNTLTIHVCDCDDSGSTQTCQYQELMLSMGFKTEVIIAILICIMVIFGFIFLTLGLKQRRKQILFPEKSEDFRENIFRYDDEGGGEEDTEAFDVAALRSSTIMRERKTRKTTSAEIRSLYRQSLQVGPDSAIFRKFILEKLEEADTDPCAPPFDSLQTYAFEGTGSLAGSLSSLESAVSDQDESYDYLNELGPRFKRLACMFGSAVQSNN

B2: hu anti-<huCDH19> 4B10 (1-471)(R17G) VH::huIgG1z / 4B10 (1-236)(H45Q,A90T) VL::huKLC (Ab ID 14054) (antibody, V domains shown)
VH: QVQLVESGGGVVQPGGSLRLSCAASGFTFSSYDMHWVRQAPGKGLEWVAVISYDGTNEYYADSVKGRFTISRDTSKNTLYLQMNSLRAEDTAVYYCARERYFDWSFDYWGQGTLVSVSS
VL: EIVLTQSPGTLSLSPGERATLSCRASQSVSNTYLAWYQQRPGQAPRLLIYGASSRATGIPDRFSGSGSGTDFTLTISSLEPEDFAVYYCQQYSNSWTFGQGTKVEIKR
notes: Engineered variant of 4B10
binding result [1]: binds | binding result [2]: binds | binding result [3]: binds

B4: anti-CDH19 antibody 23A10 (Ab ID 13884) (antibody, human IgG1, lambda, V domains shown)
VH: QVQLVESGGGVVQPGRSLRLSCAASGFTFSRYGIHWVRQAPGKGLEWVAVIWYDGSNKYYADSVKGRFTISRDNSKNTLYLLMNSLRAEDSAVYYCARRAGIPGTTGYYYGMDVWGQGTTVTVSS
VL: SYELTQPPSVSVSPGQTASITCSGDRLGEKYVCWYQQKPGQSPILVIYQDNKWPSGIPERFSGSNSGNTATLTISGTQAMDEADYYCQAWDSSTVVFGGGTKLTVLG
binding result (Human Cadherin-19): binds | binding result (Cyno Cadherin-19): binds

The remaining lines, values ahead:

binding result [1]: binds | binding result [2]: binds | binding result [3]: binds
B1: hu anti-<huCDH19> 4A2 (1-472)(Q17E,H47P) VH::huIgG1z / 4A2 (1-236)(N30Q,T102A) VL::huKLC (Ab ID 14026) (antibody, V domains shown)
VH: QVQLQESGPGLVKPSETLSLTCTVSGGSISSSGYYWSWIRQPPGKGLEWIGYIYYTGSAYYNPSLKSRVTISVDTSKNQFSLKLSSVTAADTAVYYCARDGSSGWYFQYWGQGTLVTVSS
VL: EIVLTQSPGTLSLSPGERATLSCRASRQISSSYLAWYQQKPGQAPRLLIYGPSSRATGIPDRFSGSGSGTDFTLTISRLEPEDFAVYYCQQYGSSFTFGPGTKVDIKR
notes: Engineered variant of 4A2

binding result [4]: no binding (tested: 5 ug/ml) | binding result [5]: no binding (tested: 5 ug/ml) | binding result [6]: no binding (tested: 5 ug/ml) | binding result [7]: binds | binding result [8]: no binding (tested: 5 ug/ml)
B3: hu anti-<huCDH19> 26F12.1 VH::huIgG1z / 26F12.1 VL::huLLC-C2 (Ab ID 13881) (antibody, V domains shown)
VH: QVQLVQSGAEVKKPGASVKVSCKASRYTFTNYYMSWVRQAPGQGLEWMGIINPSGGDSTYAQKFQGRLTMTGDTSTSTVYMELSSLRSEDTAVYYCARGGIQLWLHFDYWGQGTLVTVSS
VL: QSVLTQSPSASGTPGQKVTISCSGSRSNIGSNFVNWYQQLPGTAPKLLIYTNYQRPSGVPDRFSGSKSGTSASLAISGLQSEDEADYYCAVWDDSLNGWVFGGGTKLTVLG
notes: also called 27B3
